Legend:
Test in all cases: cell-based or functional assay
Elastase = molecular target: Elastase
MMP1 = molecular target: T1, MMP1 (human, UniProt P03956 100-469, limits assumed)
T1 sequence (looked up): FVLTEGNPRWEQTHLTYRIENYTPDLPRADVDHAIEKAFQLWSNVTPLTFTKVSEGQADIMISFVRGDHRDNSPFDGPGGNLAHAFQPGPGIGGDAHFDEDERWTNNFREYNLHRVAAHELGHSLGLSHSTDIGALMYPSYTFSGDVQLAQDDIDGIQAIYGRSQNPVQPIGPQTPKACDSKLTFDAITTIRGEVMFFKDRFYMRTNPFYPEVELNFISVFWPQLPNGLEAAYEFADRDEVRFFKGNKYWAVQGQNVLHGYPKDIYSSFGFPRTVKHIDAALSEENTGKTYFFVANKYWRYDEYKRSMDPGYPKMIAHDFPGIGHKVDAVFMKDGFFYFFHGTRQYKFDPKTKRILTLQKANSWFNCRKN

MMP2 = molecular target: T2, MMP2 (human, UniProt P08253 110-660, limits assumed)
T2 sequence (looked up): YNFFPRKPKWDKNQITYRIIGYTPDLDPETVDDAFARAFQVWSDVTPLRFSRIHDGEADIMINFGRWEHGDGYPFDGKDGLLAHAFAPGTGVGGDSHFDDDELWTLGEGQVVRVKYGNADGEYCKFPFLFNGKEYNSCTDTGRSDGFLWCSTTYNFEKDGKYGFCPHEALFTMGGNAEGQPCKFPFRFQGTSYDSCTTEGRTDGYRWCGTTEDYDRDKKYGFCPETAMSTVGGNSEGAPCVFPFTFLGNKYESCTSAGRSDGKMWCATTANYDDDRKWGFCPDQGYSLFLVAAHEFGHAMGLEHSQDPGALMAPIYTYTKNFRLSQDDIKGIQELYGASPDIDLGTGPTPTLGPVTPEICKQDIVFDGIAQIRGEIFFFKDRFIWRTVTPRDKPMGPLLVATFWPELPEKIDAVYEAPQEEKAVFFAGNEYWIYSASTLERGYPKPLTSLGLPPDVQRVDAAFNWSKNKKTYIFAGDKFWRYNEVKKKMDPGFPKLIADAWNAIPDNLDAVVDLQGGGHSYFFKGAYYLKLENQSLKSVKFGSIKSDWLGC

B1: Variant A2M, bait region SEQ ID NO 129 (other)
chain: SVSGKPQYMVLVPSLLHTETTEKGCVLLSYLNETVTVSASLESVRGNRSLFTDLEAENDVLHCVAFAVPKSSSNEEVMFLTVQVKGPTQEFKKRTTVMVKNEDSLVFVQTDKSIYKPGQTVKFRVVSMDENFHPLNELIPLVYIQDPKGNRIAQWQSFQLEGGLKQFSFPLSSEPFQGSYKVVVQKKSGGRTEHPFTVEEFVLPKFEVQVTVPKIITILEEEMNVSVCGLYTYGKPVPGHVTVSICRKYSDASDCHGEDSQAFCEKFSGQLNSHGCFYQQVKTKVFQLKRKEYEMKLHTEAQIQEEGTVVELTGRQSSEITRTITKLSFVKVDSHFRQGIPFFGQVRLVDGKGVPIPNKVIFIRGNEANYYSNATTDEHGLVQFSINTTNVMGTSLTVRVNYKDRSPCYGYQWVSEEHEEAHHTAYLVFSPSKSFVHLEPMSHELPCGHTQTVQAHYILNGGTLLGLKKLSFYYLIMAKGGIVRTGTHGLLVKQEDMKGHFSISIPVKSDIAPVARLLIYAVLPTGDVIGDSAKYDVENCLANKVDLSFSPSQSLPASHAHLRVTAAPQSVCALRAVDQSVLLMKPDAELSASSVYNLLPEKDLTGFPGPLNDQDDEDCINRHNVYINGITYTPVSSTNEKDMYSFLEDMGLKAFTNSKIRKPKMCPQLEQYEMHGPEAIPMSIPTEGEGEGEGIPENFFGVSEDLVVQIVEEPHTKLRKYFPETWIWDLVVVNSAGVAEVGVTVPDTITEWKAGAFCLSEDAGLGISSTASLRAFQPFFVELTMPYSVIRGEAFTLKATVLNYLPKCIRVSVQLEASPAFLAVPVEKEQAPHCICANGRQTVSWAVTPKSLGNVNFTVSAEALESQELCGTEVPSVPEHGRKDTVIKPLLVEPEGLEKETTFNSLLCPSGGEVSEELSLKLPPNVVEESARASVSVLGDILGSAMQNTQNLLQMPYGCGEQNMVLFAPNIYVLDYLNETQQLTPEIKSKAIGYLNTGYQRQLNYKHYDGSYSTFGERYGRNQGNTWLTAFVLKTFAQARAYIFIDEAHITQALIWLSQRQKDNGCFRSSGSLLNNAIKGGVEDEVTLSAYITIALLEIPLTVTHPVVRNALFCLESAWKTAQEGDHGSHVYTKALLAYAFALAGNQDKRKEVLKSLNEEAVKKDNSVHWERPQKPKAPVGHFYEPQAPSAEVEMTSYVLLAYLTAQPAPTSEDLTSATNIVKWITKQQNAQGGFSSTQDTVVALHALSKYGAATFTRTGKAAQVTIQSSGTFSSKFQVDNNNRLLLQQVSLPELPGEYSMKVTGEGCVYLQTSLKYNILPEKEEFPFALGVQTLPQTCDEPKAHTSFQISLSVSYTGSRSASNMAIVDVKMVSGFIPLKPTVKMLERSNHVSRTEVSSNHVLIYLDKVSNQTLSLFFTVLQDVPVRDLKPAIVKVYDYYETDEFAIAEYNAPCSKDLGNADYKDDDDKGASHHHHHH
Protease Inhibition (% of WT) (Elastase): 75 % of WT
Protease Inhibition (% of WT) (MMP1): 200 % of WT
Protease Inhibition (% of WT) (MMP2): 20 % of WT

— patent publication US20230250154A1 (CYTONICS, published 2023)
